Read-outs that look alike come from different tables or passages of the source. Numbered stars: 1 amine (or outer) side, 2 acyl side, 3 side chain; on linkers, the order of the positions; unused ones are H or OH. Side chains are listed from the residue outwards. Ends that are not written are not given here. * marks the point of attachment. C18 diacid = O=C(O)CCCCCCCCCCCCCCCCC(=O)*; γGlu = O=C(O)[C@H](CCC(=O)[*:2])N[*:1]; AEEA = NCCOCCOCC(=O)O
B1: N-α-#-[Leu15] Gastrin-17 (13-17) (peptide)
peptide: {C18 diacid-γGlu-AEEA-AEEA}-GWLDF-NH2
SMILES: CC(C)C[C@H](NC(=O)[C@H](Cc1c[nH]c2ccccc12)NC(=O)CNC(=O)COCCOCCNC(=O)COCCOCCNC(=O)CC[C@H](NC(=O)CCCCCCCCCCCCCCCCC(=O)O)C(=O)O)C(=O)N[C@@H](CC(=O)O)C(=O)N[C@@H](Cc1ccccc1)C(N)=O
B2: N-α-#-[Leu15] Gastrin-17 (15-17) (peptide)
peptide: {C18 diacid-γGlu-AEEA-AEEA}-Leu-Asp-Phe-NH2
SMILES: CC(C)C[C@H](NC(=O)COCCOCCNC(=O)COCCOCCNC(=O)CC[C@H](NC(=O)CCCCCCCCCCCCCCCCC(=O)O)C(=O)O)C(=O)N[C@@H](CC(=O)O)C(=O)N[C@@H](Cc1ccccc1)C(N)=O
B3: N-α-#-[Leu15] Gastrin-17 (14-17) (peptide)
peptide: {C18 diacid-γGlu-AEEA-AEEA}-WLDF-NH2
SMILES: CC(C)C[C@H](NC(=O)[C@H](Cc1c[nH]c2ccccc12)NC(=O)COCCOCCNC(=O)COCCOCCNC(=O)CC[C@H](NC(=O)CCCCCCCCCCCCCCCCC(=O)O)C(=O)O)C(=O)N[C@@H](CC(=O)O)C(=O)N[C@@H](Cc1ccccc1)C(N)=O
B4: N-α-#-Gastrin-17 (16-17) (peptide)
peptide: {C18 diacid-γGlu-AEEA-AEEA}-Asp-Phe-NH2
SMILES: NC(=O)[C@H](Cc1ccccc1)NC(=O)[C@H](CC(=O)O)NC(=O)COCCOCCNC(=O)COCCOCCNC(=O)CC[C@H](NC(=O)CCCCCCCCCCCCCCCCC(=O)O)C(=O)O

What was measured:
[1] = target: CCK2 receptor (gastrin receptor); test: cell-based or functional assay
[2] = target: CCK2 receptor (gastrin receptor); test: cell-based or functional assay; remark: listed apart in the source

| Binder | Relative Receptor Potency [1] | Relative Receptor Potency [2] |
| --- | --- | --- |
| QGPWLEEEEEAYGWLDF-NH2 (ends and bridges not checked) [[Leu15] Gastrin-17] | 100 | 100 |
| {C18 diacid-γGlu-AEEA-AEEA}-EEEEAYGWLDF-NH2 (ends and bridges not checked) [N-α-#-[Leu15] Gastrin-17 (7-17)] |  | 39 |
| B1 |  | 6 |
| B2 |  | 0 |
| QGPWLEEEEEAYGWK([AEEA-AEEA-γGlu-C18 diacid])DF-NH2 (ends and bridges not checked) [[Lys15(N-ε-#)] Gastrin-17] | 0 |  |
| {C18 diacid-γGlu-AEEA-AEEA}-QGPWLEEEEEAYGWLDF-NH2 (ends and bridges not checked) [N-α-#-[Leu15] Gastrin-17] | 57 | 76 |
| QGPWLEEEEEAYGWLK([AEEA-AEEA-γGlu-C18 diacid])F-NH2 (ends and bridges not checked) [[Lys16(N-ε-#),Leu15] Gastrin-17] | 0 |  |
| QGPWLEEEEEAYGWLDK([AEEA-AEEA-γGlu-C18 diacid])-NH2 (ends and bridges not checked) [[Lys17(N-ε-#), Leu 15] Gastrin-17] | 0 |  |
| QGPWLEEEEEAYGK([AEEA-AEEA-γGlu-C18 diacid])LDF-NH2 (ends and bridges not checked) [[Lys14(N-ε-#),Leu15] Gastrin-17] | 0 |  |
| {C18 diacid-γGlu-AEEA-AEEA}-EEAYGWLDF-NH2 (ends and bridges not checked) [N-α-#-[Leu15] Gastrin-17 (9-17)] |  | 30 |
| QGK([AEEA-AEEA-γGlu-C18 diacid])WLEEEEEAYGWLDF-NH2 (ends and bridges not checked) [[Lys3(N-ε-#),Leu15] Gastrin-17] | 60 |  |
| B3 |  | 0 |
| B4 |  | 0 |
| QGPWLEEEEEAK([AEEA-AEEA-γGlu-C18 diacid])GWLDF-NH2 (ends and bridges not checked) [[Lys12(N-ε-#),Leu15] Gastrin-17] | 6 |  |
| {C18 diacid-γGlu-AEEA-AEEA}-YGWLDF-NH2 (ends and bridges not checked) [N-α-#-[Leu15] Gastrin-17 (12-17)] |  | 7 |
| QGPWLK([AEEA-AEEA-γGlu-C18 diacid])EEEEAYGWLDF-NH2 (ends and bridges not checked) [[Lys6(N-ε-#),Leu15] Gastrin-17] | 40 |  |
| QGPWLEEEEEAYK([AEEA-AEEA-γGlu-C18 diacid])WLDF-NH2 (ends and bridges not checked) [[Lys13(N-ε-#),Leu15] Gastrin-17] | 5 |  |
| QGPK([AEEA-AEEA-γGlu-C18 diacid])LEEEEEAYGWLDF-NH2 (ends and bridges not checked) [[Lys4(N-ε-#),Leu15] Gastrin-17] | 30 |  |
| {C18 diacid-γGlu-AEEA-AEEA}-WLEEEEEAYGWLDF-NH2 (ends and bridges not checked) [N-α-#-[Leu15] Gastrin-17 (4-17)] |  | 58 |
